Here are results for 6 molecules from patent publication US20180208675A1.

Positions count from the first letter of the chain named. Where two headings read alike, the source gives them in different places.

Assay [1] addresses EA.hy926 cell surface associated TFPI (human) (UniProt P10646). Briefly: flow cytometry on EA.hy926 cells, APC anti-human IgG secondary, median fluorescence intensity.
The target is the same in assay [2].
For assay [3] the target is unchanged. The source holds these as a separate data set.

B1: mAb 2021 (antibody, human IgG4 S228P, kappa, V domains shown)
VH: EVQLVESGGGLVKPGGSLRLSCAASGFTFSNYAMSWVRQTPEKRLEWVATISRSGSYSYFPDSVQGRFTISRDNAKNSLYLQMNSLRAEDTAVYYCARLGGYDEGDAMDSWGQGTTVTVSS
VL: DIVMTQTPLSLSVTPGQPASISCKSSQSLLESDGKTYLNWYLQKPGQSPQLLIYLVSILDSGVPDRFSGSGSGTDFTLKISRVEAEDVGVYYCLQATHFPQTFGGGTKVEIKR
B1: in assay [1], the EC50 stood at 0.11 nM. For the same molecule, the EC50 (read off the curve) in assay [2] was 1 nM.

B2: Fab 0088 (Fab fragment of mAb 2021) (Fab, V domains shown)
VH: B1 VH
VL: B1 VL
In the case of B2, in assay [1], the concentration for a half-maximal effect (EC50) was 0.31 nM.

B3: Fab 0094 (Fab fragment of mAb 2007) (Fab, V domains shown)
VH: B1 VH with T40A, E42G, R44G, A49S, F60Y, Q65K
VL: B1 VL
The molecule B3 came in with an EC50 in assay [1] of 3.8 nM.

B4: Fab 0313 (Fab fragment of mAb 2000) (Fab, V domains shown)
VH: B1 VH with T40A, E42G, R44G, A49S, F60Y, P61A, Q65K
VL: B1 VL
In assay [1], B4 displayed an EC50 of 25.9 nM.

B5: Fab 0088-Fab 0089 conjugate 9002 (bispecific antibody)
heavy 1: EVQLVESGGGLVKPGGSLRLSCAASGFTFSNYAMSWVRQTPEKRLEWVATISRSGSYSYFPDSVQGRFTISRDNAKNSLYLQMNSLRAEDTAVYYCARLGGYDEGDAMDSWGQGTTVTVSSASTKGPSVFPLAPCSRSTSESTAALGCLVKDYFPEPVTVSWNSGALTSGVHTFPAVLQSSGLYSLSSVVTVPSSSLGTKTYTCNVDHKPSNTKVDKRVESKYGPPC
light 1: DIVMTQTPLSLSVTPGQPASISCKSSQSLLESDGKTYLNWYLQKPGQSPQLLIYLVSILDSGVPDRFSGSGSGTDFTLKISRVEAEDVGVYYCLQATHFPQTFGGGTKVEIKRTVAAPSVFIFPPSDEQLKSGTASVVCLLNNFYPREAKVQWKVDNALQSGNSQESVTEQDSKDSTYSLSSTLTLSKADYEKHKVYACEVTHQGLSSPVTKSFNRGEC
heavy 2: QVQLQQSGAELVKPGASVKLSCKASGYTFISYYMYWVKQRPGQGLEWIGEINPSNGDTNLNEKFKSKATLTVDKSSSTVYMQLSSLTSEDSAVYYCTRWDRFDGFVYWGQGTLVTVSAASTKGPSVFPLAPCSRSTSESTAALGCLVKDYFPEPVTVSWNSGALTSGVHTFPAVLQSSGLYSLSSVVTVPSSSLGTKTYTCNVDHKPSNTKVDKRVESKYGPPC
light 2: ETTVTQSPASLSMAIGGKVTIRCIISTNIDDDINWYQQKPGEPPKLLISEGNTLRPGVPSRFSSSGYGTDFVFTIENMLSEDVADYYCLQSDDLPYTFGGGTKLEIKRTVAAPSVFIFPPSDEQLKSGTASVVCLLNNFYPREAKVQWKVDNALQSGNSQESVTEQDSKDSTYSLSSTLTLSKADYEKHKVYACEVTHQGLSSPVTKSFNRGEC
modifications: C-terminal cysteine coupled through the bis-maleimide linker to the Fab 0088 heavy chain; C-terminal cysteine coupled through 1,16-N,N'-bis(maleimido)-4,13-diaza-7,10-dioxa-3,14-dioxohexadecane to the C-terminal cysteine of the Fab 0089 heavy chain
In assay [1], B5 displayed an EC50 of 0.33 nM. In assay [3], this molecule yielded an EC50 (read off the curve) of 2 nM.

B6: Fab 0094-Fab 0089 conjugate 9004 (bispecific antibody)
heavy 1: B5 heavy 1 with T40A, E42G, R44G, A49S, F60Y, Q65K
light 1: B5 light 1
heavy 2: B5 heavy 2
light 2: B5 light 2
modifications: C-terminal cysteine coupled through the bis-maleimide linker to the Fab 0094 heavy chain; C-terminal cysteine coupled through 1,16-N,N'-bis(maleimido)-4,13-diaza-7,10-dioxa-3,14-dioxohexadecane to the C-terminal cysteine of the Fab 0089 heavy chain
The molecule B6 gave an EC50 in assay [1] of 6.9 nM.
